According to publication doi:10.1101/2021.05.25.445547:
Where “and” joins values, the source holds several entries; their conditions need not be identical. Identical values can stand only once. Blank lines part the entries; values can stand above or below the molecule they belong to.

Tests used:
[1] = biological target: optimized bait-PAR-Grb2 with inserted flexible linker sequences, RFP-fused (UniProt P62993); experiment: subcellular micropatterning
[2] = biological target: optimized bait-PAR-Grb2 with inserted flexible linker sequences, GFP-fused (UniProt P62993); experiment: TIR-FRAP on micropatterned bait
[3] = biological target: optimized bait-PAR-Grb2 with inserted flexible linker sequences, GFP-fused (UniProt P62993); experiment: subcellular micropatterning
[4] = biological target: T1, optimized bait-PAR-Grb2 with inserted flexible linker sequences, RFP-fused, P62993; experiment: subcellular micropatterning; details: remark: other sources report otherwise
[5] = biological target: T1, optimized bait-PAR-Grb2 with inserted …; experiment: TIR-FRAP on micropatterned bait; details: remark: other sources report otherwise

- EC50 [1]: 68 µM and 63 µM
- dissociation half-life of Gab1 from Grb2 at 100 μM peptide [1]: 42 s
- dissociation half-life of SOS1 from Grb2 at 100 μM peptide [1]: 36 s
- maximum prey dissociation (Gab1 and SOS1 from Grb2) at 100 μM peptide [1]: 70 to 75%
Molecule: cell-permeable cyclic peptide cyclo(YpVNFΦrpPRR)

- halftime of dissociation (FRAP) [2]: 10 s
- k slow (exchange rate, bi-exponential FRAP fit) [2]: 0.103 s⁻¹
- bait-normalized fluorescence contrast <c (prey/bait)>, after EGF [3]: 0.45
- bait-normalized fluorescence contrast <c (prey/bait)>, unstimulated cells [3]: 0.14
Molecule: SHC-transforming protein 1 (Shc1), RFP-fused (from UniProt P29353 1-583) (natural protein)

- bait-normalized fluorescence contrast <c (prey/bait)>, after EGF [4]: 0.56
- bait-normalized fluorescence contrast <c (prey/bait)>, basal conditions [4]: 0.55
- reduction of copatterning with 10 μM actinomycin D [4]: 25%
- halftime of dissociation (FRAP) [5]: 13 s
- k slow (exchange rate, bi-exponential FRAP fit) [5]: 0.074 s⁻¹
B1: son of sevenless protein 1 (SOS1), GFP-fused, Q07889 1-1333 (natural protein)
chain: MQAQQLPYEFFSEENAPKWRGLLVPALKKVQGQVHPTLESNDDALQYVEELILQLLNMLCQAQPRSASDVEERVQKSFPHPIDKWAIADAQSAIEKRKRRNPLSLPVEKIHPLLKEVLGYKIDHQVSVYIVAVLEYISADILKLVGNYVRNIRHYEITKQDIKVAMCADKVLMDMFHQDVEDINILSLTDEEPSTSGEQTYYDLVKAFMAEIRQYIRELNLIIKVFREPFVSNSKLFSANDVENIFSRIVDIHELSVKLLGHIEDTVEMTDEGSPHPLVGSCFEDLAEELAFDPYESYARDILRPGFHDRFLSQLSKPGAALYLQSIGEGFKEAVQYVLPRLLLAPVYHCLHYFELLKQLEEKSEDQEDKECLKQAITALLNVQSGMEKICSKSLAKRRLSESACRFYSQQMKGKQLAIKKMNEIQKNIDGWEGKDIGQCCNEFIMEGTLTRVGAKHERHIFLFDGLMICCKSNHGQPRLPGASNAEYRLKEKFFMRKVQINDKDDTNEYKHAFEIILKDENSVIFSAKSAEEKNNWMAALISLQYRSTLERMLDVTMLQEEKEEQMRLPSADVYRFAEPDSEENIIFEENMQPKAGIPIIKAGTVIKLIERLTYHMYADPNFVRTFLTTYRSFCKPQELLSLIIERFEIPEPEPTEADRIAIENGDQPLSAELKRFRKEYIQPVQLRVLNVCRHWVEHHFYDFERDAYLLQRMEEFIGTVRGKAMKKWVESITKIIQRKKIARDNGPGHNITFQSSPPTVEWHISRPGHIETFDLLTLHPIEIARQLTLLESDLYRAVQPSELVGSVWTKEDKEINSPNLLKMIRHTTNLTLWFEKCIVETENLEERVAVVSRIIEILQVFQELNNFNGVLEVVSAMNSSPVYRLDHTFEQIPSRQKKILEEAHELSEDHYKKYLAKLRSINPPCVPFFGIYLTNILKTEEGNPEVLKRHGKELINFSKRRKVAEITGEIQQYQNQPYCLRVESDIKRFFENLNPMGNSMEKEFTDYLFNKSLEIEPRNPKPLPRFPKKYSYPLKSPGVRPSNPRPGTMRHPTPLQQEPRKISYSRIPESETESTASAPNSPRTPLTPPPASGASSTTDVCSVFDSDHSSPFHSSNDTVFIQVTLPHGPRSASVSSISLTKGTDEVPVPPPVPPRRRPESAPAESSPSKIMSKHLDSPPAIPPRQPTSKAYSPRYSISDRTSISDPPESPPLLPPREPVRTPDVFSSSPLHLQPPPLGKKSDHGNAFFPNSPSPFTPPPPQTPSPHGTRRHLPSPPLTQEVDLHSIAGPPVPPRQSTSQHIPKLPPKTYKREHTHPSMHRDGPPLLENAHSS
